Measured values reported in patent publication US20250222125A1, “Anti-FGFR2b Antibodies, Conjugates and Methods of Use” (BeiGene, Ltd., priority 2024, published 2025).

B1: BGAh9179: humanized anti-FGFR2b IgG1 antibody from murine BGAm1371; VH SEQ ID NO: 21, VL SEQ ID NO: 22 (antibody, V domains shown)
VH: QVQLVQSGAEVKKPGASVKVSCKASGYTITDTYIHWVRQAPGQGLEWMGRIDPAEGNTMFASEFQGRVTMTADTSTSTVYMELSSLRSEDTAVYYCARSKIHYDYDEGFAYWGQGTLVTVSS
VL: DIVLTQSPDSLAVSLGERATINCRASESVDDYGYSFLHWYQQKPGQPPKLLIYRASNLESGVPDRFSGSGSGTDFTLTISSLQAEDVAVYYCQQSNQNPRTFGGGTKVEIK
modifications: Synthetic: VH AA; Synthetic: VL AA
B2: BGAm1823: parental murine anti-FGFR2b antibody; VH SEQ ID NO: 28, VL SEQ ID NO: 30 (antibody, V domains shown)
VH: EVQLQQSGAELVKPGASVKISCKASGYAFSIYWMNWVKQRPGKGLEWIGQIYPENGDTNYNGKFKGKATLTADKSSSTAYMHLSSLTSEDSAVYFCARGGFDYWGQGTTLTVSS
VL: NIVMTQSPASLSASVGETVTITCRASENIYSNLAWYQQKQGKSPQLLVYTATNLADGVPSRFSGSGSGTQFSLKINSLQPEDFGSYYCQHFYGILYTFGSGTRLEIK
modifications: Synthetic: VH AA; Synthetic: VL AA

Key:
[1] = molecular target: T1, soluble human FGFR2b proteins (Homo sapiens, UniProt P21802); experiment: SPR binding kinetics (Biacore 8K, Example 5); conditions: room temperature
T1 construct: soluble human FGFR2b proteins (his tag, in-house generated); His tag; made in house
T1 sequence (P21802 22-378 isoform P21802-3 limits assumed): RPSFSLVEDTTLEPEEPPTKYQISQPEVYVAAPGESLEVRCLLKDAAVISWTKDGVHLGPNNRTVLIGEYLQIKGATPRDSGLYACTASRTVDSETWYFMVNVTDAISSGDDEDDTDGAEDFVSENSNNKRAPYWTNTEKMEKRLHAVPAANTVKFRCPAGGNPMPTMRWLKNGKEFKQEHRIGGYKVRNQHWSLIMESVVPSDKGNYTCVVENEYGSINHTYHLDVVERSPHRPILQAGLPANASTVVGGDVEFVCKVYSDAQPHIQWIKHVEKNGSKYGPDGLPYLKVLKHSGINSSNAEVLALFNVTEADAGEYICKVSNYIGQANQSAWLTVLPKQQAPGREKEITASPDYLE
Description: The binding affinity and kinetics of purified anti-FGFR2b antibodies were determined by surface plasmon resonance (Biacore 8K, GE Life Sciences) at room temperature. Briefly, mouse anti-human IgG Fc antibody was immobilized via amine coupling onto a activated CM5 biosensor chip (Cat. No. BR100530, GE Life Sciences). Purified monoclonal antibody candidates were flowed over the chip surface and captured by anti-human IgG antibody. Then a serial dilution of soluble human FGFR2b proteins (his tag, in-house generated) were injected over the antibodies captured surface and changes in surface plasmon resonance signals were analyzed to calculate the association rates (kon) and dissociation rates (koff) by using the one-to-one Langmuir binding model (BIA Evaluation Software, GE Life Sciences). The equilibrium dissociation constant (KD) was calculated as the ratio koff/kon.

[2] = molecular target: T2, human FGFR2b (Homo sapiens, UniProt P21802); experiment: SPR affinity determination, human FGFR2b (Example 9); assay type: binding; conditions: for Kd: kd/ka
T2 sequence (P21802 22-822 isoform P21802-3 limits assumed): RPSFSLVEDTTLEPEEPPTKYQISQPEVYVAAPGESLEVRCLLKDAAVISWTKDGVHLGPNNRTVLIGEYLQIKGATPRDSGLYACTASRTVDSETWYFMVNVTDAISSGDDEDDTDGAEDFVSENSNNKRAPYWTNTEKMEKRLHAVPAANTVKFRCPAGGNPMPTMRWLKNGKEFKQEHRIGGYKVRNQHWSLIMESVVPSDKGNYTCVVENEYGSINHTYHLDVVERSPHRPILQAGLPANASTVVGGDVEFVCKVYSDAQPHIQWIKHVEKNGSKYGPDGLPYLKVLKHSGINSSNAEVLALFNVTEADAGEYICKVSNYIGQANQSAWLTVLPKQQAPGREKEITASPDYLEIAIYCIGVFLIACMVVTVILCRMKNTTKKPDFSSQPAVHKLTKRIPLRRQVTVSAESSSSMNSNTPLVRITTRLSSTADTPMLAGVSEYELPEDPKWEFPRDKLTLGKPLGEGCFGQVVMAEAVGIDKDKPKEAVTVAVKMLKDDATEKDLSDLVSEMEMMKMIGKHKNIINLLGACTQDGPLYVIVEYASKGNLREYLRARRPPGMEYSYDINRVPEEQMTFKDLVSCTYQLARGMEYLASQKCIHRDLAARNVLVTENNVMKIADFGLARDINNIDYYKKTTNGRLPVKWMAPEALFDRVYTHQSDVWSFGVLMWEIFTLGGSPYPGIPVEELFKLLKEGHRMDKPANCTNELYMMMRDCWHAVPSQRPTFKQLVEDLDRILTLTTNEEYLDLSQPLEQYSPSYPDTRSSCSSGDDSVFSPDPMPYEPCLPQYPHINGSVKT
Description: (§1) For affinity determination, antibodies were captured by anti-human Fc antibodies, and used in the affinity assay based on surface plasmon resonance (SPR) technology. SPR signals were analyzed to calculate the association rates (ka) and dissociation rates (kd) by using the one-to-one Langmuir binding model (BIA Evaluation Software, GE Life Sciences). The equilibrium dissociation constant (KD) was calculated as the ratio of kd/ka. Rmax represents the maximal feasible SPR signal generated by an interaction between a ligand-analyte pair and is represented in response units (RU). BGAh9239 and BGA9179 show similar binding profiles to human FGFR2b and cyno FGFR2b, and are similar to their parental antibodies BGAm1823 and BGAm1371, respectively.

[3] = system: Cyno FGFR2b; experiment: SPR affinity determination, cyno FGFR2b (Example 9); assay type: binding
Description: as §1

[4] = molecular target: T2, human FGFR2b; experiment: FACS binding to native FGFR2b on Expi293 cells, human FGFR2b (Example 10); conditions: Expi293 cells overexpressing human FGFR2b
Description: (§2) To evaluate the binding activity of anti-FGFR2b antibodies to native FGFR2b on living cells, Expi293 cells were engineered to overexpress human FGFR2b, cyno FGFR2b, mouse FGFR2b, or human FGFR2c. Expi293 cells expressing antigens were seeded in 96-well plates, and were incubated with serially diluted anti-FGFR2b antibodies. Goat anti-human IgG [Alexa Fluor® 647] […] The change of mean fluorescent intensity (MFI) of humanized candidates BGAh9239 and BGAh9179 was measured by flow cytometry. EC50 values for dose-dependent binding to native human FGFR2b, cyno FGFR2b, mouse FGFR2b, and human FGFR2c were determined using sigmoidal dose-response curves of nonlinear fit from GraphPad Prism™.

[5] = molecular target: T3, Mouse FGFR2b (Mus musculus, UniProt P21803); experiment: FACS binding on Expi293 cells, mouse FGFR2b (Example 10); conditions: Expi293 cells overexpressing mouse FGFR2b
T3 construct: expressed in transfected cells; host or cells: Expi293
T3 sequence (P21803 22-707 isoform P21803-2 limits assumed): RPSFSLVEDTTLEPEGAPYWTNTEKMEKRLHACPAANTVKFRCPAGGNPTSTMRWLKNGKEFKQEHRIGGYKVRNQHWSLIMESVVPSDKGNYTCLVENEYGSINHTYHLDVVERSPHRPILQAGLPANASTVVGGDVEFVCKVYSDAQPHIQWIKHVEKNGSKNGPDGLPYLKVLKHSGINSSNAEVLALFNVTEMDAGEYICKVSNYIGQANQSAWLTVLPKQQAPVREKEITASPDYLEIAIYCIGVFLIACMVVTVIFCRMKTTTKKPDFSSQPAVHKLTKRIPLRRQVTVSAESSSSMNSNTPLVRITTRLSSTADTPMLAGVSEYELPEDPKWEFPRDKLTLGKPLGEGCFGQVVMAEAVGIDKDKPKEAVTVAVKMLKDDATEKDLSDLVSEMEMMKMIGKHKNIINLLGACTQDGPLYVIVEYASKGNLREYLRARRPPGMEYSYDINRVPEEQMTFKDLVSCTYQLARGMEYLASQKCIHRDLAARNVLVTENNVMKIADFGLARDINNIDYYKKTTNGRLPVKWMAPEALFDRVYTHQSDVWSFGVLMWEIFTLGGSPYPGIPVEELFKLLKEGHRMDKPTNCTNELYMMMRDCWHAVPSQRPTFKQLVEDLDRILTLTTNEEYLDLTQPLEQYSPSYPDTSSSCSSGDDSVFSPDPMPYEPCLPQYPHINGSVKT
Description: as §2

[6] = molecular target: T4, Human FGFR2c (Homo sapiens, UniProt P21802); experiment: FACS binding on Expi293 cells, human FGFR2c (Example 10); conditions: for Emax (MFI): Expi293 cells overexpressing human FGFR2c
T4 sequence (P21802 22-821): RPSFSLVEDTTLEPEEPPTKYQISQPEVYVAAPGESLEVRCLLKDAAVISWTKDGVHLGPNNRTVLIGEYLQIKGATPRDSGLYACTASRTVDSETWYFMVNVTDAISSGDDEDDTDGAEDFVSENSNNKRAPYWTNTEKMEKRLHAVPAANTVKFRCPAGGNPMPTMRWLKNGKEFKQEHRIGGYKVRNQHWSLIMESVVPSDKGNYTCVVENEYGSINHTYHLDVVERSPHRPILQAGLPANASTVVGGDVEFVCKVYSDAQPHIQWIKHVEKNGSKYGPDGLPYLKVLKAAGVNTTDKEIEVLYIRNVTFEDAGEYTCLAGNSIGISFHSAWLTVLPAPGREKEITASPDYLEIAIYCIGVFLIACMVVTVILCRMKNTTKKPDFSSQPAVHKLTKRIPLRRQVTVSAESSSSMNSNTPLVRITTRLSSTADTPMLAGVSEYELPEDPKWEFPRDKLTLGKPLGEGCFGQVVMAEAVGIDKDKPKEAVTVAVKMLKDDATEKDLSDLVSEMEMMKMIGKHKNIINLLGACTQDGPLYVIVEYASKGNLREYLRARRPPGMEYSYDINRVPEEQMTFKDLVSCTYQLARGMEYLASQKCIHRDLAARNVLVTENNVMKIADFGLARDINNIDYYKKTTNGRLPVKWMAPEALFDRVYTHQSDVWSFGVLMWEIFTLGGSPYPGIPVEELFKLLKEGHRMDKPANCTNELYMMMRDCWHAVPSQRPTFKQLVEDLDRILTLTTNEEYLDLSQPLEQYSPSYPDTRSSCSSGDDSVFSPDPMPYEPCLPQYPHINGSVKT
Description: as §2

[7] = molecular target: T2, human FGFR2b; experiment: ELISA binding to recombinant human FGFR2b (Example 11)
[8] = system: Cyno FGFR2b; experiment: ELISA binding to recombinant cyno FGFR2b (Example 11)
[9] = molecular target: T4, Human FGFR2c; experiment: ELISA binding to recombinant human FGFR2c (Example 11); conditions: for Emax (A450): human FGFR2c; for binding to human FGFR2c: in words
[10] = system: phosphorylated FGFR in SNU-16 cells; experiment: Inhibition of FGFR2 signaling in SNU-16 cells (Western blot of pFGFR); assay type: cell-based; conditions: antibody 10 μg/ml, 2 hours; for FGF10-induced FGFR phosphorylation: FGF10 10 ng/ml
Description: Inhibition of the FGFR2 signaling pathway by the humanized antibodies was investigated. SNU-16 cells were grown in RPMI-1640 medium with 10% FBS, collected and washed twice with free medium and then seeded in 12-well plates at 1.5E6 cells/well in serum-free RPMI-1640. The plates were incubated at 37° C., 5% CO2, and 95% humidity in an incubator overnight. Anti-FGFR2b antibodies at a concentration of 10 μg/ml were added to the assay plates. Recombinant human FGF7 or FGF10 protein (10 ng/ml) in the presence of heparin (5 μg/ml) was added to the assay plates. The plates were incubated in a 37° C., 5% CO2, 95% humidity incubator for 2 hours. Following 2 hours incubation, cells were collected and washed twice with cold PBS. NP40 lysis buffer containing 1×PMSF and 1× Protease plus phosphatase inhibitors were added to the cell pellets. The mixture was pipetted up and down to suspend the pellet. The mixture was inverted gently and each placed for 10 minutes on ice, for a total of 30 minutes. The mixture was centrifuged at 12000× rpm for 10 minutes to pellet the cell debris. The supernatant was transferred to a new tube to quantify total protein concentration by BCA Kit. The protein samples were then split and stored at −80° C. for further Western blotting to detect the expression of pFGFR and total FGFR2.
Western blotting procedure: The completely thawed protein samples were mixed with 4×SDS loading buffer and were heated for 10 min at 37° C. Then the mixtures were centrifuged at ˜3500×rpm for 5 min. Equal amounts of proteins were loaded into an SDS-PAGE gel, whereafter proteins were transferred to PVDF membranes using iBlot. The membranes were then subjected to Western blotting analysis, focusing on phosphorylated FGFR and total FGFR2.

[11] = system: BaF3_hFGFR2b OE cells; experiment: Ligand-induced proliferation inhibition assay in BaF3_hFGFR2b OE cells; assay type: cell-based; conditions: antibody 10 μg/ml, heparin 5 μg/ml, 72 hours
Description: The inhibition activity of antibody on ligand-induced cell proliferation was evaluated in an FGFR2b engineered BaF3 cell line system (BaF3_hFGFR2b OE). BaF3 cells are dependent on interleukin-3 (IL-3) for growth. The BaF3 system allows for testing of kinases and kinase inhibitors. Some protein kinases can render BaF3 cells to be independent of IL-3, whereas kinase inhibitors antagonize this effect. Cells were seeded in 96-well plates at 30,000 cells/well in RPMI-1640 medium containing 10% fetal bovine serum. Anti-FGFR2b antibodies at a concentration of 10 μg/ml were added to the assay plates. Recombinant human FGF7 or FGF10 protein (40 ng/ml) in the presence of heparin (5 μg/ml) was added to the assay plates. The plates were incubated at 37° C., 5% CO2, 95% humidity in an incubator for 72 hours. Following incubation, 50 μl Cell Titer Glo reagent was added to each well and the plates were mixed for 1 min and then incubated at RT for 10 min. Luminescence signals were detected and recorded.
The Ba/F3 system is used to investigate downstream oncogenic signaling pathways and the susceptibility of driver variants to therapeutics. Driver-addicted Ba/F3 cells die when the driver-engaged signaling pathway is inhibited, and this effect can be rescued by re-introduction of […].
FIGS. 6 and 7 show the results of Ba/F3 proliferation assays. The net growth on Ba/F3 cells overexpressing FGFR2b is reported after treatment with anti-FGFR2b antibodies of the present disclosure. Normal Ba/F3 cells die shortly after withdrawal of exogenous […]. […] Comparator BGA2311 binds at the N-terminus and is not considered to be a ligand blocker. Thus, BGAm1371 may partially block the FGFR2b signaling pathway, such as the signaling pathway mediated by FGF7.

Molecule | Rmax [2] [RU] | ka [2] [M^−1S^−1] | kd [2] [S^−1] | Kd [2] [nM] | ka [3] [M^−1S^−1] | kd [3] [S^−1] | EC50 [4] [nM] | Emax (MFI) [4] [MFI] | EC50 [5] [nM] | Emax (MFI) [5] [MFI] | Emax (MFI) [6] [MFI] | EC50 [7] [nM] | Emax (A450) [7] [A450] | Emax (A450) [8] [A450] | Emax (A450) [9] [A450] | binding to human FGFR2c [9] | FGF10-induced FGFR phosphorylation [10] | further results
B1 | 38.3 | 8.16E+04 | 1.78E−03 | 21.8 | 8.37E+04 | 1.72E−03 | 3.29 | 2977577 | 4.25 | 5145011 | 21749 | 0.0518 | 2.993 | 2.953 | 0.086 | no detectable binding | little or no down-regulation | ka ([1]; antibody captured): 80600 M⁻¹ s⁻¹; kd ([1]; antibody captured): 0.00112 s⁻¹; Kd ([1]; koff/kon): 13.9 nM; binding to native human FGFR2c ([6]; living Expi293 cells, in words): no detectable binding
B2 | 85.7 | 7.63E+04 | 1.85E−03 | 24.2 | 7.35E+04 | 1.80E−03 | 2.12 | 3092441 | 3.37 | 5194795 | 22634 | 0.0442 | 2.952 | 2.996 | 0.116 | no detectable binding | down-regulation of phosphorylated FGFR | inhibition of FGF7-induced BaF3_hFGFR2b cell proliferation ([11]; FGF7 40 ng/ml): potently inhibit; inhibition of FGF10-induced BaF3_hFGFR2b cell proliferation ([11]; FGF10 40 ng/ml): potently inhibit; FGF7-induced FGFR phosphorylation ([10]; FGF7 10 ng/ml): down-regulation of phosphorylated FGFR
